Target: F-actin
Assay: cosedimentation with F-actin through a sucrose cushion, SDS-PAGE

Kd: 53 nM
stoichiometry (actin monomers per MacMARCKS): 12
Substance: MacMARCKS

From patent publication US5885772
